The source of these data is the supplement of paper PMC10567573.

This data set is described as follows: protein stability index of a GFP-peptide fusion (GPS, HEK-293T) (PSI 1-6); higher = more stable. The conditions noted are these: c terminus: a fixed tail appended.

± gives the standard deviation.
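Also: 24-mer peptide tiles fused after GFP, lentivirally expressed, FACS-sorted into six equal bins by GFP/DsRed ratio, decoded by Illumina sequencing, PSI is the read-weighted mean bin number.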

Take PRYITDVIDAEPFIRCSLQCRDLV [KLHL12]: the protein stability index is 2.25 ± 0.57 (treatment: DMSO) and 2.26 ± 0.66 (treatment: MLN4924 1 uM, 8 h).

The sequence PSAALTTMQLFSKQNPSRQEVTKL [FBXO28] showed a protein stability index (treatment: DMSO) of 4.16 ± 0.37 and a protein stability index (treatment: MLN4924 1 uM, 8 h) of 4.37 ± 0.23.

PSATRAKPGPQDTVERPFYDLWAS [NOP53]: the protein stability index by setting is: (treatment: DMSO) 3.08 ± 0.37; (treatment: MLN4924 1 uM, 8 h) 3.24 ± 0.37.

Consider PSCQETRDYAPPSRGYAYRDNGHS [RBMY1A1], for which the protein stability index was found to be 4.18 ± 0.18 (treatment: DMSO) and 4.21 ± 0.21 (treatment: MLN4924 1 uM, 8 h).

Take PSELRDLVTQQLPHLMPSNCGLEE [S100A14]: the protein stability index runs as follows: (treatment: DMSO) 2.71 ± 0.22; (treatment: MLN4924 1 uM, 8 h) 3.02 ± 0.18.

Consider PSSPGRFTKETTQKNFNNLYGTKG [TRIM29], for which the protein stability index by setting is: (treatment: DMSO) 4.2 ± 0.27; (treatment: MLN4924 1 uM, 8 h) 4.37 ± 0.085.

For the sequence PSVRKKAGSFSRRLIKRFSFKSKP [C2CD2L], the protein stability index runs as follows: (treatment: DMSO) 3.34 ± 0.56; (treatment: MLN4924 1 uM, 8 h) 3.35 ± 0.31.

As for PTEQVNELVALIPHSDQRLRPQRT [TMEM106C], the protein stability index runs as follows: (treatment: DMSO) 4.63 ± 0.12; (treatment: MLN4924 1 uM, 8 h) 4.75 ± 0.1.

With PTRCLPGHKEEEDGEGAGPGEQGG [ESRRA], the protein stability index (treatment: DMSO) was 5.68 ± 0.3 and the protein stability index (treatment: MLN4924 1 uM, 8 h) came out at 5.38 ± 0.26.

Consider PTVIRNVGLGTCSMFSRVGGIIAP [SLC22A15], for which the protein stability index is, setting by setting: (treatment: DMSO) 2.34 ± 0.3; (treatment: MLN4924 1 uM, 8 h) 2.23 ± 0.47.

In the case of PTYKVMYKIVTAREWRCCPGHSGV [EMID1], the protein stability index by setting is: (treatment: DMSO) 2.5 ± 0.57; (treatment: MLN4924 1 uM, 8 h) 2.89 ± 0.75.

For PVAAQFTSEGTTLSGVDLELVGSG [FCHO1], the protein stability index was determined as 4.54 ± 0.17 (treatment: DMSO) and 4.57 ± 0.24 (treatment: MLN4924 1 uM, 8 h).

The sequence PVLRPMDLMVEATPRRVFANAHTY [PPP2R2B] came in with a protein stability index (treatment: DMSO) of 2.68 ± 0.17 and a protein stability index (treatment: MLN4924 1 uM, 8 h) of 2.82 ± 0.075.

With PYDGNSSDPENWDRKLHSRPRKLY [BTBD10], the protein stability index amounted to 3.35 ± 0.24 (treatment: DMSO) and 3.41 ± 0.34 (treatment: MLN4924 1 uM, 8 h).

On to PYVCHAELNAIMNKNSTDVKGCSM [DCTD], for which the protein stability index is 3.41 ± 0.22 (treatment: DMSO) and 3.43 ± 0.33 (treatment: MLN4924 1 uM, 8 h).

In turn, QAALQKQQEVVVAGSSLPTSSKVN [ACBD3] yielded a protein stability index (treatment: DMSO) of 5.04 ± 0.18 and a protein stability index (treatment: MLN4924 1 uM, 8 h) of 5.03 ± 0.063.

Regarding QAALRAARLRHQELFRLRGIKAQV [NOP53], the protein stability index was 2.4 ± 0.19 (treatment: DMSO) and 2.86 ± 0.57 (treatment: MLN4924 1 uM, 8 h).

Take QAGDYSMRVDLRAGDEAVFAQYDS [TNXB]: the protein stability index came out at 4.43 ± 0.42 (treatment: DMSO) and 4.2 ± 0.096 (treatment: MLN4924 1 uM, 8 h).

Take QAQIHGLPVPPTPGLLSLATTSAS [TFE3]: the protein stability index amounted to 3.86 ± 0.11 (treatment: DMSO) and 3.87 ± 0.18 (treatment: MLN4924 1 uM, 8 h).

In the case of QDSFEAAGNSTSGSRAGASSFSDP [KCNA3], the protein stability index runs as follows: (treatment: DMSO) 5.42 ± 0.31; (treatment: MLN4924 1 uM, 8 h) 5.35 ± 0.16.

QEDSGLRDHSVRVLISNHVTPFDH [AUP1]: the protein stability index came to 3.9 ± 0.12 (treatment: DMSO) and 3.67 ± 0.29 (treatment: MLN4924 1 uM, 8 h).

For QEGLLDRCVSFQARFAEKEELMLV [HDAC6], the protein stability index (treatment: DMSO) turned out to be 2.44 ± 0.34 and the protein stability index (treatment: MLN4924 1 uM, 8 h) worked out at 2.52 ± 0.53.

As for QELNELFKPVVAAQKISKGADPKS [ZC3H15], the protein stability index by setting is: (treatment: DMSO) 4.8 ± 0.13; (treatment: MLN4924 1 uM, 8 h) 4.92 ± 0.18.

Consider QERQMLQALKFLPVPSAPVIDLAE [FSD1], for which the protein stability index by setting is: (treatment: DMSO) 3.47 ± 0.31; (treatment: MLN4924 1 uM, 8 h) 3.3 ± 0.25.

QGVEGDHCVTSDPATSPLVLAIPR [TRIM35]: the protein stability index is, setting by setting: (treatment: DMSO) 4.43 ± 0.27; (treatment: MLN4924 1 uM, 8 h) 4.66 ± 0.22.

Regarding QGVISQLEDTCKTIEECCRKQKQE [TRIM55], the protein stability index stood at 5.2 ± 0.29 (treatment: DMSO) and 5.34 ± 0.31 (treatment: MLN4924 1 uM, 8 h).

QHGQLGTNTRRGSRAPCKVQGLEG [NEK8]: the protein stability index reads like this: (treatment: DMSO) 4.18 ± 0.15; (treatment: MLN4924 1 uM, 8 h) 4.19 ± 0.19.

Sequence QHNLCRKCASDIFQASNPYLPTRG [TRIM55] gave a protein stability index (treatment: DMSO) of 2.29 ± 0.26 and a protein stability index (treatment: MLN4924 1 uM, 8 h) of 2.45 ± 0.22.

Take QKEQGLSDNILSPVMNGGVQTWTQ [PDZK1]: the protein stability index (treatment: DMSO) was determined as 2.84 ± 0.5 and the protein stability index (treatment: MLN4924 1 uM, 8 h) came to 3.32 ± 0.71.

Consider QLCGKTFLTLEKFTIHNYSHSRER [PLAGL1], for which the protein stability index (treatment: DMSO) is 2.15 ± 0.57 and the protein stability index (treatment: MLN4924 1 uM, 8 h) was found to be 2.27 ± 0.27.

Take QLDWDELETNQQHFHALCHSLLVS [M1AP]: the protein stability index came out at 2.3 ± 0.29 (treatment: DMSO) and 2.69 ± 0.45 (treatment: MLN4924 1 uM, 8 h).

Consider QLEEGLKDTDLARVRRFQVVEVTK [M1AP], for which the protein stability index runs as follows: (treatment: DMSO) 4.06 ± 0.15; (treatment: MLN4924 1 uM, 8 h) 4.04 ± 0.32.

Take QLGDLHTCLMMDMKACQEDDVRLL [INTS3]: the protein stability index is 3.41 ± 0.18 (treatment: DMSO) and 3.56 ± 0.19 (treatment: MLN4924 1 uM, 8 h).

Consider QMTNIGVYVSNMTDKLVTPGKYFS [IQUB], for which the protein stability index by setting is: (treatment: DMSO) 2.31 ± 0.5; (treatment: MLN4924 1 uM, 8 h) 2.49 ± 0.28.

QNHGQHLILSREASWAKPHYEFNL [LCOR]: the protein stability index came to 2.28 ± 0.23 (treatment: DMSO) and 2.51 ± 0.35 (treatment: MLN4924 1 uM, 8 h).

As for QNKIRACGERLSLGLSRAQPVQSK [PDLIM7], the protein stability index turned out to be 3.92 ± 0.28 (treatment: DMSO) and 3.85 ± 0.2 (treatment: MLN4924 1 uM, 8 h).
